Columns and labels:
Type in all cases: cell-based
[1] = test system: RAJI-CD19-KO cells; assay: JNG assay, co-culture with RAJI-CD19-KO cells; conditions: co-culture with Raji-CD19-KO
How it was run: (§1)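 Jurkat NFAT-GFP (JNG) cells stably transduced with SARs by lentivirus, with drug selection where the construct carried a resistance gene, then co-cultured with target cells at E:T ~1:2 for ~4–18 h. % GFP-positive cells measured by FACS against parental JNG; +/- to 5+ correspond to ~5–50% GFP-positive.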

[2] = test system: Nalm6 cells; assay: JNG assay, co-culture with Nalm6 cells; conditions: co-culture with Nalm6
How it was run: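 Jurkat NFAT-GFP reporter cells stably expressing lentivirally delivered SARs (puromycin or blasticidin selection) were cocultured with target cells at E:T ~1:2 for ~4–18 h. GFP was read by FACS, and % GFP+ cells were scored against parental reporter cells (+/-, +, 2+…5+ ≈ 5%, 10%, 20%…50%).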

[3] = test system: RAJI cells; assay: JNG assay, co-culture with RAJI cells; conditions: JNG cells expressing construct, co-culture with Raji
How it was run: as §1

[4] = test system: RS;411; assay: JNG assay, co-culture with RS;411 cells; conditions: co-culture with RS411
Description: Cellular supernatant is collected and assayed for the induction of cytokines (e.g., IL2).
JNG (Jurkat cells expressing EGFP under an NFAT promoter) were infected with lentiviral vectors encoding different single chain and multi-chain SARs by spinfection in the presence of 8 µg/ml of Polybrene® (Sigma, Catalog no. H9268). The Jurkat-NFAT-GFP cells are engineered in such a way that the IL-2 promoter, which carries NFAT binding sites, is cloned upstream of the GFP gene. These cells have been used to study signaling via TCR and CAR. The different SARs were stably expressed in Jurkat NFAT-GFP cells by lentiviral mediated gene transfer, followed by selection with puromycin or blasticidin. No drug selection was used in case the construct lacked an antibiotic resistance gene. The SAR-expressing Jurkat-NFAT-GFP cells were cocultured with the target cells at E:T ratio of approximately 1:2 for approximately 4 hours to 18 hours. When the interaction between SIRs and their target antigen results in activation of the NFAT pathway, GFP expression is induced. […] GFP expression was monitored by FACS analysis. The Jurkat-NFAT-GFP (parental) cells were used as control. The structure of different constructs can be determined based on their names. […] The sequence of the other constructs in the table can be similarly determined from their names and by referring to the different Tables of this disclosure that provide the names and SEQ ID NO of the different modules. Alternatively, the composition and modular architecture of the different SAR constructs can be determined from their sequences by bioinformatics tools, including using nucleic acid and amino acids homology searches. A SAR is considered positive in the assay in case the SAR expressing Jurkat-NFAT-GFP cells show greater % GFP positive cells when cultured with the target cell line as compared to parental Jurkat-NFAT-GFP cells. […] In general, the number +/-, +, 2+, 3+, 4+, 5+ refer to approximately 5%, 10%, 20%, 30%, 40% and 50% GFP positive cells. The % of GFP induction in the above assay is dependent not only the relative strength of the SAR but also, among other factors, on the relative level of expression of the SAR in the JNG cells and the relative level of expression of the target antigen in the target cell line. To control for the difference in gene transduction efficiency of the different SAR constructs, the experiment was conducted with JNG cells transduced with SAR constructs co-expressing a drug resistance gene (e.g., puromycin or PAC) followed by drug selection to generate a stable population of SAR-expressing cells. It is to be noted that the drug resistance gene (e.g., PAC) in the SAR constructs is optional and in vivo studies were conducted with SAR constructs lacking the PAC gene.

Row | Molecule | NFAT-GFP ASSAY: Raji-CD19-KO [1] | NFAT-GFP ASSAY: Nalm6 [2] | NFAT-GFP ASSAY: Raji [3] | NFAT-GFP ASSAY: RS411 [4]
1 | 22105 (protein) MALPVTALLLPLALLLHAARPDIQMTQSPSSLSASVGDRVTITCKASDHINNWLAWYQQKPGQAPKLLIYGATTLETGVPSRFSGSGSGTDYTLTISSLQPEDFATYYCQQSWNTPWTFGQGTKLEIKRLEDLKNVFPPEVAVFEPSEAEISHTQKATLVCLATGFYPDHVELSWWVNGKEVHSGVCTDPQPLKEQPALNDSRYCLSSRLRVSATFWQNPRNHFRCQVQFYGLSENDEWTQDRAKPVTQIVSAEAWGRADCGFTSESYQQGVLSATILYEILLGKATLYAVLVSALVLMAMVKRKDSRGRAKRSGSGATNFSLLKQAGDVEENPGPTSATMDWIWRILFLVGAATGAHSGPQVQLQESGGGLAQAGGSLRLSCAASGRTFSMGWFRQAPGKEREFVAAITYSGGSPYYASSVRGRFTISRDNAKNTVYLQMNSLKPEDTAVYYCAANPTYGSDWNAENWGQGTQVTVSSGSGGGGSGGGGSGGGGSFEQVQLQQPGAELVKPGASVKMSCKASGYAFSSYWINWMKQKPGQGLEWIGQIYPGDGDTNYNGKFKGRATLTADTSSSTAYMQLSSLTSEDSAVYFCARSITTVVGCAMDYWGQGTSVTVSSTRIQNPDPAVYQLRDSKSSDKSVCLFTDFDSQTNVSQSKDSDVYITDKCVLDMRSMDFKSNSAVAWSNKSDFACANAFNNSIIPEDTFFPSPESSCDVKLVEKSFETDTNLNFQNLSVIGFRILLLKVAGFNLLMTLRLWSSRAKRSGSGVKQTLNFDLLKLAGDVESNPGPSRGHMTEYKPTVRLATRDDVPRAVRTLAAAFADYPATRHTVDPDRHIERVTELQELFLTRVGLDIGKVWVADDGAAVAVWTTPESVEAGAVFAEIGPRMAELSGSRLAAQQQMEGLLAPHRPKEPAWFLATVGVSPDHQGKGLGSAVVLPGVEAAERAGVPAFLETSAPRNLPFYERLGFTVTADVEVPEGPRTWCMTRKPGA | 4+ (refer to approximately 5%, 10%, 20%, 30%, 40% and 50% GFP positive cells) | 5+ (refer to approximately 5%, 10%, 20%, 30%, 40% and 50% GFP positive cells) |  | 
2 | 22161 (protein) MALPVTALLLPLALLLHAARPACEVQLLESGGGLIQPGGSLRLSCAASGFTFSSHAMTWVRQAPGKGLEWVSAISGSGDYTHYADSVKGRFTISRDNSKNTVYLQMNSLRAEDSAVYYCAKDEDGGSLLGHRGQGTLVTVSSGTGGGGSGGGGSGGGGSEFDIQMTQSPSSLSASVGDRVTITCKASDHINNWLAWYQQKPGQAPKLLIYGATTLETGVPSRFSGSGSGTDYTLTISSLQPEDFATYYCQQSWNTPWTFGQGTKLEIKRLEDLKNVFPPEVAVFEPSEAEISHTQKATLVCLATGFYPDHVELSWWVNGKEVHSGVCTDPQPLKEQPALNDSRYCLSSRLRVSATFWQNPRNHFRCQVQFYGLSENDEWTQDRAKPVTQIVSAEAWGRADCGFTSESYQQGVLSATILYEILLGKATLYAVLVSALVLMAMVKRKDSRGRAKRSGSGATNFSLLKQAGDVEENPGPTSATMDWIWRILFLVGAATGAHSGPEVQLVESGGGLVQAGGSLRLSCAASGRTFSMGWFRQAPGKEREFVAAITYSGGSPYYADSVKGRFTISRDNAKNTVYLQMNSLKPEDTAVYYCAANPTYGSDWNAENWGQGTQVTVSSGSGGGGSGGGGSGGGGSFEQVQLQQPGAELVKPGASVKMSCKASGYAFSSYWINWMKQKPGQGLEWIGQIYPGDGDTNYNGKFKGRATLTADTSSSTAYMQLSSLTSEDSAVYFCARSITTVVGCAMDYWGQGTSVTVSSTRIQNPDPAVYQLRDSKSSDKSVCLFTDFDSQTNVSQSKDSDVYITDKCVLDMRSMDFKSNSAVAWSNKSDFACANAFNNSIIPEDTFFPSPESSCDVKLVEKSFETDTNLNFQNLSVIGFRILLLKVAGFNLLMTLRLWSSRAKRSGSGVKQTLNFDLLKLAGDVESNPGPSRGHMTEYKPTVRLATRDDVPRAVRTLAAAFADYPATRHTVDPDRHIERVTELQELFLTRVGLDIGKVWVADDGAAVAVWTTPESVEAGAVFAEIGPRMAELSGSRLAAQQQMEGLLAPHRPKEPAWFLATVGVSPDHQGKGLGSAVVLPGVEAAERAGVPAFLETSAPRNLPFYERLGFTVTADVEVPEGPRTWCMTRKPGA | +/- (refer to approximately 5%, 10%, 20%, 30%, 40% and 50% GFP positive cells) | +/- (refer to approximately 5%, 10%, 20%, 30%, 40% and 50% GFP positive cells) | +/- (refer to approximately 5%, 10%, 20%, 30%, 40% and 50% GFP positive cells) | 
3 | 22115 (protein) MALPVTALLLPLALLLHAARPQVQLVESGGGLVQPGGSLRLSCAASGFTFTNHAMSWVRQAPGKGLELVSSISGNGRTTYYADSVKGRFTISRDISKNTLDLQMNSLRAEDTAVYYCAKDGGETLVDSRGQGTLVTVSSLEDLKNVFPPEVAVFEPSKAEIAHTQKATLVCLATGFYPDHVELSWWVNGKEVHSGVCTDPQPLKEQPALNDSRYCLSSRLRVSATFWQNPRNHFRCQVQFYGLSENDEWTQDRAKPVTQIVSAEAWGRADCGITSASYHQGVLSATILYEILLGKATLYAVLVSALVLMAMVKRKDSRGRAKRSGSGATNFSLLKQAGDVEENPGPTSTMALPVTALLLPLALLLHAARPQVQLVESGGGLVQPGGSLRLSCAASGFTFTNHAMSWVRQAPGKGLELVSSISGNGRTTYYADSVKGRFTISRDISKNTLDLQMNSLRAEDTAVYYCAKDGGETLVDSRGQGTLVTVSSLESGGGGSFEQVQLQQPGAELVKPGASVKMSCKASGYAFSSYWINWMKQKPGQGLEWIGQIYPGDGDTNYNGKFKGRATLTADTSSSTAYMQLSSLTSEDSAVYFCARSITTVVGCAMDYWGQGTSVTVSSTRIQNPDPAVYQLRDSKSSDKSVCLFTDFDSQTNVSQSKDSDVYITDKCVLDMRSMDFKSNSAVAWSNKSDFACANAFNNSIIPEDTFFPSSDVPCDVKLVEKSFETDTNLNFQNLSVIGFRILLLKVAGFNLLMTLRLWSSRAKRSGSGVKQTLNFDLLKLAGDVESNPGPSRGHMTEYKPTVRLATRDDVPRAVRTLAAAFADYPATRHTVDPDRHIERVTELQELFLTRVGLDIGKVWVADDGAAVAVWTTPESVEAGAVFAEIGPRMAELSGSRLAAQQQMEGLLAPHRPKEPAWFLATVGVSPDHQGKGLGSAVVLPGVEAAERAGVPAFLETSAPRNLPFYERLGFTVTADVEVPEGPRTWCMTRKPGA |  |  |  | 2+ (refer to approximately 5%, 10%, 20%, 30%, 40% and 50% GFP positive cells)
4 | 22139 (protein) MALPVTALLLPLALLLHAARPACEVQLLESGGGLIQPGGSLRLSCAASGFTFSSHAMTWVRQAPGKGLEWVSAISGSGDYTHYADSVKGRFTISRDNSKNTVYLQMNSLRAEDSAVYYCAKDEDGGSLLGHRGQGTLVTVSSGTGGGGSGGGGSGGGGSEFDIQMTQSPSSLSASVGDRVTITCKASDHINNWLAWYQQKPGQAPKLLIYGATTLETGVPSRFSGSGSGTDYTLTISSLQPEDFATYYCQQSWNTPWTFGQGTKLEIKRLEADVSPKPTIFLPSIAETKLQKAGTYLCLLEKFFPDVIKIHWQEKKSNTILGSQEGNTMKTNDTYMKFSWLTVPEKSLDKEHRCIVRHENNKNGVDQEIIFPPIKTDVITMDPKDNCSKDANDTLLLQLTNTSAYYMYLLLLLKSVVYFAIITCCLLRRTAFCCNGEKSRAKRSGSGATNFSLLKQAGDVEENPGPTSMDWIWRILFLVGAATGAHSGPQVQLQESGGGLAQAGGSLRLSCAASGRTFSMGWFRQAPGKEREFVAAITYSGGSPYYASSVRGRFTISRDNAKNTVYLQMNSLKPEDTAVYYCAANPTYGSDWNAENWGQGTQVTVSSGSGGGGSGGGGSGGGGSFEQVQLQQPGAELVKPGASVKMSCKASGYAFSSYWINWMKQKPGQGLEWIGQIYPGDGDTNYNGKFKGRATLTADTSSSTAYMQLSSLTSEDSAVYFCARSITTVVGCAMDYWGQGTSVTVSSTRPHTKPSVFVMKNGTNVACLVKEFYPKDIRINLVSSKKITEFDPAIVISPSGKYNAVKLGKYEDSNSVTCSVQHDNKTVHSTDFEVKTDSTDHVKPKETENTKQPSKSCHKPKAIVHTEKVNMMSLTVLGLRMLFAKTVAVNFLLTAKLFFLRAKRSGSGVKQTLNFDLLKLAGDVESNPGPSRGHMTEYKPTVRLATRDDVPRAVRTLAAAFADYPATRHTVDPDRHIERVTELQELFLTRVGLDIGKVWVADDGAAVAVWTTPESVEAGAVFAEIGPRMAELSGSRLAAQQQMEGLLAPHRPKEPAWFLATVGVSPDHQGKGLGSAVVLPGVEAAERAGVPAFLETSAPRNLPFYERLGFTVTADVEVPEGPRTWCMTRKPGA |  |  | 2+ (refer to approximately 5%, 10%, 20%, 30%, 40% and 50% GFP positive cells) | 2+ (refer to approximately 5%, 10%, 20%, 30%, 40% and 50% GFP positive cells)

Source: patent US20230212319A1, “NOVEL ANTIGEN BINDING DOMAINS AND SYNTHETIC ANTIGEN RECEPTORS INCORPORATING THE SAME” (University of Southern California, priority 2020, published 2023)
